# Laboratory results: patent US20230263900A1, “DENDRIMER-DRUG CONJUGATE” (priority 2020, published 2023)
# Assay: Pharmacokinetic studies of RHa-5 and RHa-15, single IV or SC administration, compared with RDV
# Assay type: in vivo, animals (mammals)
# Conditions: for F AUC(0-inf), plasma GS-441524 / F AUC(0-inf), plasma Remdesivir / F AUC(0-last), plasma GS-441524 / F AUC(0-last), plasma Remdesivir: relative to RDV IV
# Description: Studies were undertaken to investigate the pharmacokinetic (PK) profile of two Remdesivir dendrimer conjugates following single intravenous (IV) or subcutaneous (SC) administration, and to compare them with that of Remdesivir (RDV).
# The study consisted of two phases (PK Phase 1 and PK Phase 2) in a total of 6 animals (age 36-48 months) each part separated by a washout period: • PK Phase 1: Four animals (mammals) were studied. One male and one female were administered RHa-5 (BHALys [Lys]2[Lys]2[Lys]8[Lys]16[Lys]32[(α-NH-6N-TDA-Remdesivir)32(ε-NH-COPEG2000)32] 20% Remdesivir loading w/w) (test item) intravenously; and one male and one female were administered RHa-5 subcutaneously. Blood samples were taken over a period of 7 days. A minimum washout period of 14 days took place between the last blood sampling point of the PK Phase 1 and the start of PK Phase 2. • PK Phase 2: Six animals (mammals) were studied. One male and one female were administered RHa-15 (BHALys[Lys]2[Lys]4[Lys]8[Lys]16[Lys]32[(α-NH-3′ O-TDA-Remdesivir)32(ε-NH-COPEG2000)32] 18.63% Remdesivir loading w/w) (test item) intravenously; one male and one female were administered RHa-15 subcutaneously; and one male and one female were administered RDV (reference item). Blood samples were taken over a period of 7 days.
# Formulation procedure: Test items RHa-5 and RHa-15 were reconstituted in Required volume of Water for injection (WFI), until a complete solution was obtained. The required volume of WFI was slowly added to RDV formulation (a lyophilate of 3.2% w/w RDV, 96.8% and sodium sulfobutylether-β-cyclodextrin adjusted to pH 3.5 with HCl) and shaken vigorously for 30 seconds. The solution was left for 20 minutes to ensure complete dissolution.
# Administration: The clinical Remdesivir loading dose in humans is 200 mg. […] Allometric conversion of the dose from humans to small mammals results in an equivalent test dose of 6.17 mg/kg Remdesivir. Test item was administered as follows:
# PK Phase 1: Two animal groups (A and B) of one male and one female each were administered test item RHa-5 at a Remdesivir equivalent dose of 6.17 mg/kg. Group A were administered the test item as a slow (30 seconds) intravenous bolus; and Group B were administered the test item over 30 seconds using the subcutaneous (SC) route into the back of the animal.
# PK Phase 2: Three animal groups (C, D and E) of one male and one female each were included in this study phase. Groups C and D were administered test item RHa-15 at a Remdesivir equivalent dose of 6.17 mg/kg using the IV and SC routes, respectively. Group E were administered 6.17 mg/kg of RDV intravenously. IV administrations were done as a slow (30 seconds) bolus. SC administrations were done over 30 seconds.
# Sampling schedule: Blood samples for PK analysis were collected as follows: • Day 1: pre-dose and at 15 min, 30 min, 1 h, 2 h, 4 h, 6 h, and 12 h after administration. • Days 2 to 8: 24, 48, 72, and 168 h after administration.
# A blood volume of 2 mL was collected at each time point from the jugular vein with a 20-21G needle into a lithium heparin tube, and transferred into a tube containing 200 μL 0.15 M citric acid. Immediately following blood collection, the blood samples were mixed gently and kept on crushed ice until centrifugation at 1500 G for 10 min at 4° C. within 30 minutes of collection. Each plasma sample was stored frozen (˜80±10° C.).
# The quantification range was 0.6 to 14400 ng/mL for Remdesivir and 0.6 to 14400 ng/mL for G441524.
# Non-compartmental pharmacokinetic analysis was adopted to obtain the pharmacokinetic parameters from the blood concentration profiles.
# The maximum concentration, Cmax, and time of maximum concentration, Tmax, were determined as the maximum measured concentration and its associated time. The area under the plasma concentration curve from 0 hours to the time of the last measurable concentration, AUC0-last, was calculated using linear trapezoidal estimation. […]
# [1] = both sexes, in vivo, iv, 6.17 mg/kg
# [2] = female, in vivo, iv, 6.17 mg/kg
# [3] = IV, 6.17 mg/kg Remdesivir equivalent, female (4F)
# [4] = IV, 6.17 mg/kg Remdesivir equivalent, female (4F; RDV 6F)
# [5] = IV, 6.17 mg/kg Remdesivir equivalent, male (1M)
# [6] = IV, 6.17 mg/kg Remdesivir equivalent, male (1M; RDV 3M)
# [7] = IV, 6.17 mg/kg Remdesivir equivalent, mean of male and female
# [8] = IV, 6.17 mg/kg Remdesivir equivalent, mean
# [9] = SC, 6.17 mg/kg Remdesivir equivalent, female (5F)
# [10] = SC, 6.17 mg/kg Remdesivir equivalent, male (2M)
# [11] = SC, 6.17 mg/kg Remdesivir equivalent, mean
compound,measurement,setting,value
"CCC(CC)COC(=O)[C@H](C)N[P@](=O)(OC[C@H]1O[C@@](C#N)(c2ccc3c(N)ncnn23)[C@H](O)[C@@H]1O)Oc1ccccc1 [RDV, 2-Ethylbutyl (2S)-2-{[(S)-{[(2R,3S,4R,5R)-5-(4-aminopyrrolo[2,1-f][1,2,4]triazin-7-yl)-5-cyano-3,4-dihydroxytetrahydrofuran-2-yl]methoxy}(phenoxy)phosphoryl]amino}propanoate]",AUC(0-inf),[1],332 ng·h/mL
same,AUC(0-t),[1],312 ng·h/mL
same,Cmax,[1],364 ng/mL
same,Tmax,[1],0.3 h
same,"Clast, plasma Remdesivir","both, in vivo, iv, 6.17 mg/kg",2 ng/mL
same,Time with plasma levels of Remdesivir greater than 10 ng/ml,"both, in vivo, iv, 6.17 mg/kg",about 1 hour
same,Time with plasma levels of Remdesivir greater than 100 ng/ml,"both, in vivo, iv, 6.17 mg/kg",about 30 minutes
same,"t1/2last, plasma Remdesivir","both, in vivo, iv, 6.17 mg/kg",7.3 h
same,"tlast, plasma Remdesivir","both, in vivo, iv, 6.17 mg/kg",36 h
same,AUC(0-inf),[2],293 ng·h/mL
same,AUC(0-t),[2],265 ng·h/mL
same,Cmax,[2],267 ng/mL
same,Tmax,[2],0.25 h
same,Vd,[2],3920 L/kg
same,concentration at 48 h,[2],1.8 ng/mL
same,"t1/2last, plasma Remdesivir",[2],10.7 h
same,"tlast, plasma Remdesivir",[2],48 h
same,Clearance from blood,"in vivo, iv",rapidly cleared from blood
same,AUC(0-inf),"male, in vivo, iv, 6.17 mg/kg",370 ng·h/mL
same,AUC(0-t),"male, in vivo, iv, 6.17 mg/kg",360 ng·h/mL
same,Cmax,"male, in vivo, iv, 6.17 mg/kg",462 ng/mL
same,Tmax,"male, in vivo, iv, 6.17 mg/kg",0.25 h
same,Vd,"male, in vivo, iv, 6.17 mg/kg",1130 L/kg
same,concentration at 24 h,"male, in vivo, iv, 6.17 mg/kg",1.8 ng/mL
same,"t1/2last, plasma Remdesivir","male, in vivo, iv, 6.17 mg/kg",3.9 h
same,"tlast, plasma Remdesivir","male, in vivo, iv, 6.17 mg/kg",24 h
BHALys[Lys]2[Lys]4[Lys]8[Lys]16[Lys]32[(α-NH-3′O-TDA-Remdesivir)32(ε-NH-COPEG2000)32] [RHa-15],"C0, plasma GS-441524",[3],1 ng/mL
same,"C0, plasma Remdesivir",[3],691 ng/mL
same,"F AUC(0-inf), plasma GS-441524",[3],0.8 x-fold
same,"F AUC(0-inf), plasma Remdesivir",[3],14.8 x-fold
same,"F AUC(0-last), plasma GS-441524",[3],0.7 x-fold
same,"F AUC(0-last), plasma Remdesivir",[3],16.3 x-fold
same,"Clast, plasma GS-441524",[4],10.5 ng/mL
same,"Clast, plasma Remdesivir",[4],1.8 ng/mL
same,"t1/2last, plasma GS-441524",[4],19.0 h
same,"t1/2last, plasma Remdesivir",[4],10.1 h
same,"tlast, plasma GS-441524",[4],72 h
same,"tlast, plasma Remdesivir",[4],72 h
same,"C0, plasma GS-441524",[5],1 ng/mL
same,"C0, plasma Remdesivir",[5],664 ng/mL
same,"F AUC(0-inf), plasma GS-441524",[5],0.8 x-fold
same,"F AUC(0-inf), plasma Remdesivir",[5],12.1 x-fold
same,"F AUC(0-last), plasma GS-441524",[5],0.7 x-fold
same,"F AUC(0-last), plasma Remdesivir",[5],12.4 x-fold
same,"Clast, plasma GS-441524",[6],10.9 ng/mL
same,"Clast, plasma Remdesivir",[6],1.8 ng/mL
same,"t1/2last, plasma GS-441524",[6],21.5 h
same,"t1/2last, plasma Remdesivir",[6],10.0 h
same,"tlast, plasma GS-441524",[6],72 h
same,"tlast, plasma Remdesivir",[6],72 h
same,"C0, plasma GS-441524",[7],1 ng/mL
same,"C0, plasma Remdesivir",[7],677 ng/mL
same,"Clast, plasma GS-441524",[7],11 ng/mL
same,"Clast, plasma Remdesivir",[7],2 ng/mL
same,"t1/2last, plasma GS-441524",[7],20.3 h
same,"t1/2last, plasma Remdesivir",[7],10.0 h
same,"tlast, plasma GS-441524",[7],72 h
same,"tlast, plasma Remdesivir",[7],2 h
same,"F AUC(0-inf), plasma GS-441524",[8],0.8 x-fold
same,"F AUC(0-inf), plasma Remdesivir",[8],13.5 x-fold
same,"F AUC(0-last), plasma GS-441524",[8],1 x-fold
same,"F AUC(0-last), plasma Remdesivir",[8],14 x-fold
same,"Clast, plasma GS-441524",[9],1 ng/mL
same,"Clast, plasma Remdesivir",[9],2 ng/mL
same,"t1/2last, plasma GS-441524",[9],24.5 h
same,"t1/2last, plasma Remdesivir",[9],31.5 h
same,"tlast, plasma GS-441524",[9],168 h
same,"tlast, plasma Remdesivir",[9],168 h
same,"F AUC(0-inf), plasma GS-441524",[9],0.8 x-fold
same,"F AUC(0-inf), plasma Remdesivir",[9],14.8 x-fold
same,"F AUC(0-last), plasma GS-441524",[9],0.8 x-fold
same,"F AUC(0-last), plasma Remdesivir",[9],16.3 x-fold
same,"Clast, plasma GS-441524",[10],1 ng/mL
same,"Clast, plasma Remdesivir",[10],2 ng/mL
same,"t1/2last, plasma GS-441524",[10],26.2 h
same,"t1/2last, plasma Remdesivir",[10],41.3 h
same,"tlast, plasma GS-441524",[10],168 h
same,"tlast, plasma Remdesivir",[10],168 h
same,"F AUC(0-inf), plasma GS-441524",[10],0.9 x-fold
same,"F AUC(0-inf), plasma Remdesivir",[10],12.1 x-fold
same,"F AUC(0-last), plasma GS-441524",[10],0.9 x-fold
same,"F AUC(0-last), plasma Remdesivir",[10],12.4 x-fold
same,"Clast, plasma GS-441524",[11],1 ng/mL
same,"Clast, plasma Remdesivir",[11],2 ng/mL
same,"t1/2last, plasma GS-441524",[11],25.3 h
same,"t1/2last, plasma Remdesivir",[11],36.4 h
same,"tlast, plasma GS-441524",[11],168 h
same,"tlast, plasma Remdesivir",[11],168 h
same,"F AUC(0-inf), plasma GS-441524",[11],0.8 x-fold
same,"F AUC(0-inf), plasma Remdesivir",[11],13.5 x-fold
same,"F AUC(0-last), plasma GS-441524",[11],1 x-fold
same,"F AUC(0-last), plasma Remdesivir",[11],14 x-fold
same,Plasma Remdesivir t1/2 and AUC compared to RDV delivered IV,delivered IV or SC,substantially extended plasma Remdesivir t1/2 and increased AUC
